From patent publication US20130303393A1 (RESEARCH DEVELOPMENT FOUNDATION, published 2013)
Positions count from the first letter of the chain named.

B1: YMB2 IgG (antibody, V domains shown)
VH: EVQLQQSGAELVKPGASVKLSCTASGFNIKDTYMHWVKQRPEQGLEWIGRIDPENGNTKYDPKFQGKATITADTSSNTAYLQLSSLTSEDTAVYYCARFLITTGYFDYWGQGTTLTVSS
VL: DIVLTQSHKFMSTSVGDRVSITCKASQDVGTAVAWYQQKPGQSPKLLIYWASTRHTGVPDRFTGSGSGTDFTLTISNVQSEDLADYFCQQYSSYPLTFGAGTKLEIKR
B2: YMF10 IgG (antibody, V domains shown)
VH: EVQLQQSGAELVRSGASVKLSCTASGFNIKDYYMHWVKQRPEQGLEWIGWIDPENGDTEYAPKFQGKATMSADTSSNTAYLQLSSLTSEDTAVYYCNAGTPFEGLRRADYWGQGTTLTVSS
VL: B1 VL with L4M, I106L, K107N
B3: YMD1 IgG (antibody, V domains shown)
VH: B2 VH with Q5V, Q6E, S71T, R107K
VL: B1 VL with L4M, F10L, K45R, S76T, L96Y, A100G

These binders were tested against PA-63 (Bacillus anthracis, UniProt P13423 197-764).
PA-63, sequence (P13423 197-764 limits assumed): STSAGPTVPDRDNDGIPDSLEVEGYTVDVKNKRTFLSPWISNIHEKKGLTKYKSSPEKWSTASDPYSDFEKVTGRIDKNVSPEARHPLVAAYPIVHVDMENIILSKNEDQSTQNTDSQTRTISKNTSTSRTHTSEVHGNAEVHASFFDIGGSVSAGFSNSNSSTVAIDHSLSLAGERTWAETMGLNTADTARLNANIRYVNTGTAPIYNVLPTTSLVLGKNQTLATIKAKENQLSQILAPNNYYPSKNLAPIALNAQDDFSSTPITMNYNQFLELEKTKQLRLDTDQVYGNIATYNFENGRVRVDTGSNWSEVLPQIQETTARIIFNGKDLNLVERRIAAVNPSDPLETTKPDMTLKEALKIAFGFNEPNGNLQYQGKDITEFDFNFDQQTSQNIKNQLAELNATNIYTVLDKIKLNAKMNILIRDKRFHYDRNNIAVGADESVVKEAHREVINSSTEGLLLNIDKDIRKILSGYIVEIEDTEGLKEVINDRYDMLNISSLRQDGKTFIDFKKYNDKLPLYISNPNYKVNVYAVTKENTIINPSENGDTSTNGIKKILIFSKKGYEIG

Binder	Kd [nM]	koff [s⁻¹]	kon [M⁻¹ s⁻¹]
B1	437	0.014	32000
B2	31	0.015	490000
B3	55	0.019	350000
